± gives the uncertainty stated by the source.
Assay: self-splicing fitness, log relative to wild type (ln ratio); higher = more splicing; Tetrahymena group I intron in knt gene, E. coli kanamycin selection, DiMSum; sequences stand for … in CUCUCU…GGAGGGAAAAGUUAUCAGGCAUGCACCUGGUAGCUAGUCUUUAAACCAAUAGAUUGCAUCGGUUUAAAAGGCAAGACCGUCAAAUUGCGGGAAAGGGGUCAACAGCCGUUCAGUACCAAGUCUCAGGGGAAACUUUGAGAUGGCCUUGCAAAGGGUAUGGUAAUAAGCUGACGGACAUGGUCCUAACCACGCAGCCAAGUCCUAAGUCAACAGAUCUUCUGUUGAUAUGGAUGCAGUUCACAGACUAAAUGUCGGUCGGGGAAGAUGUAUUCUUCUCAUAAGAUAUAGUCGGACCUCUCCUUAAUGGGAGCUAGCGGAUGAAGUGAUGCAACACUGGAGCCGCUGGGAACUAAUUUGUAUGCGAAAGUAUAUUGAUUAGUUUUGGAGUACUCGUGGUCG
Outline: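 DiMSum derived fitness as the error-weighted combination of fold changes across replicates, kanamycin versus no kanamycin, normalised to wild type. E. coli BL21(DE3) held the library, which randomised all eight P1ex-region intron nucleotides within the knt kanamycin-resistance gene on pET-22b(+). Six replicate transformations grew overnight at 37°C or 30°C on LB agar with or without 25 μg/mL kanamycin, also containing 100 μg/mL carbenicillin, 50 μM IPTG and 0.2% rhamnose, and pooled colonies were amplicon-sequenced on an Illumina HiSeq 2500.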

Sequence	self-splicing fitness (ln) (30 °C)	self-splicing fitness (ln) (37 °C)
ACGCAGCAAUAUUACGUCAU	-3.44 ± 0.12	-1.52 ± 0.11
UGCCAGCAAUAUUACGGGGC	-3.04 ± 0.16	-1.74 ± 0.17
GCGUAGCAAUAUUACGUUAC	-2.56 ± 0.23	-2.37 ± 0.32
AAUUAGCAAUAUUACGAAUU	-2.7 ± 0.15	-1.1 ± 0.13
UGCAAGCAAUAUUACGACAU	-1.679 ± 0.013	-0.674 ± 0.032
GGUAAGCAAUAUUACGUGGA	-2.91 ± 0.21	-2.52 ± 0.2
UACGAGCAAUAUUACGGUCC	-3.61 ± 0.43	
AAUGAGCAAUAUUACGUCAU	-2.26 ± 0.2	-1.02 ± 0.18
UUCCAGCAAUAUUACGAAAA	-0.987 ± 0.11	0.126 ± 0.11
CGUUAGCAAUAUUACGAGCG	-3.69 ± 0.21	-2.63 ± 0.21
AGUUAGCAAUAUUACGGGUA	-2.61 ± 0.39	-0.0817 ± 0.2
AAACAGCAAUAUUACGUGAA	-1.92 ± 0.073	-0.646 ± 0.072
UUACAGCAAUAUUACGCGAC	-2.37 ± 0.17	-1.41 ± 0.18
CGAAAGCAAUAUUACGUCUG	-0.362 ± 0.066	0.364 ± 0.078
GGGAAGCAAUAUUACGGUCA	-0.346 ± 0.1	-0.237 ± 0.11
CUUUAGCAAUAUUACGUUGA		-3.01 ± 0.35
GUGGAGCAAUAUUACGAAUA	-4.24 ± 0.47	-2.33 ± 0.38
CGUCAGCAAUAUUACGCUCG	-2.69 ± 0.18	-1.63 ± 0.15
CGAGAGCAAUAUUACGGCUC	-1.09 ± 0.21	
CAUUAGCAAUAUUACGUACG	-0.341 ± 0.09	0.593 ± 0.12
CGGAAGCAAUAUUACGCCGC	-2.96 ± 0.28	-2.51 ± 0.35
CGUUAGCAAUAUUACGGCUG	-0.2 ± 0.093	-0.439 ± 0.12
CAGCAGCAAUAUUACGUAAA	-3.26 ± 0.14	-1.95 ± 0.15
AACGAGCAAUAUUACGCUAA	-3.19 ± 0.35	-2.33 ± 0.16
UAUUAGCAAUAUUACGUGGC		-1.84 ± 0.39

Sequence	self-splicing fitness (ln) (30 °C)	self-splicing fitness (ln) (37 °C)
UUUCAGCAAUAUUACGAACU	-1.23 ± 0.092	0.244 ± 0.1
UGAAAGCAAUAUUACGCCAC		-2.67 ± 0.48
AAGGAGCAAUAUUACGAGGG	-2.76 ± 0.24	-2.93 ± 0.3
UAUAAGCAAUAUUACGCGGC	-3.53 ± 0.35	-2.92 ± 0.47
UUCCAGCAAUAUUACGGCUU	-1.4 ± 0.11	-0.36 ± 0.1
UUGUAGCAAUAUUACGUGUG	-1.28 ± 0.17	-1.17 ± 0.11
AUAUAGCAAUAUUACGUUGG	-4.08 ± 0.42	-2.04 ± 0.26
UAAAAGCAAUAUUACGCCUG	-0.364 ± 0.088	0.229 ± 0.12
AGGCAGCAAUAUUACGCGAG	-2.49 ± 0.13	-1.12 ± 0.13
CCCCAGCAAUAUUACGUAUA	-4.57 ± 0.34	-3.21 ± 0.28
UCACAGCAAUAUUACGUCUA	-1.25 ± 0.077	-0.331 ± 0.075
ACGCAGCAAUAUUACGUUCU	-1.1 ± 0.082	-0.958 ± 0.09
UUUUAGCAAUAUUACGAAAA	-1.13 ± 0.17	-0.0479 ± 0.18
CUGCAGCAAUAUUACGGGCG	-1.3 ± 0.059	-0.522 ± 0.073
GUUUAGCAAUAUUACGACAG	-3.68 ± 0.32	-2.43 ± 0.34
GCCAAGCAAUAUUACGUUCC	-0.712 ± 0.1	-0.674 ± 0.16
UUGUAGCAAUAUUACGAUCA	-0.608 ± 0.19	-0.00925 ± 0.14
UACCAGCAAUAUUACGCAUA	-0.736 ± 0.072	0.0861 ± 0.083
GAGCAGCAAUAUUACGCAGG	-2.08 ± 0.13	-2.55 ± 0.19
ACAAAGCAAUAUUACGUUAU	-2.81 ± 0.089	-1.5 ± 0.089
CUCGAGCAAUAUUACGCUCA	-1.96 ± 0.27	-2.15 ± 0.45
CGUAAGCAAUAUUACGUGUA	-3.25 ± 0.22	-0.592 ± 0.13
UCCAAGCAAUAUUACGCUGU	-2.3 ± 0.14	-2.25 ± 0.17
GUUUAGCAAUAUUACGUACU	-0.0508 ± 0.3	0.333 ± 0.33
CAACAGCAAUAUUACGUGCA	-2.72 ± 0.11	-1.57 ± 0.092

Sequence	self-splicing fitness (ln) (30 °C)	self-splicing fitness (ln) (37 °C)
CCACAGCAAUAUUACGUGUG	-3.61 ± 0.095	-2.36 ± 0.092
UACUAGCAAUAUUACGGCCC	-1.47 ± 0.16	-2.36 ± 0.28
ACUUAGCAAUAUUACGGCUC	-0.897 ± 0.061	-0.503 ± 0.077
GGAGAGCAAUAUUACGUAUC	-2.61 ± 0.34	-0.193 ± 0.23
AUCAAGCAAUAUUACGUCUU	-1.86 ± 0.072	-0.301 ± 0.073
GCUAAGCAAUAUUACGACUU	-0.326 ± 0.09	-0.0273 ± 0.098
CAUCAGCAAUAUUACGCACU	-1.99 ± 0.092	-1.17 ± 0.098
CGCUAGCAAUAUUACGGUGG	-1.71 ± 0.12	-2.3 ± 0.17
UGCCAGCAAUAUUACGCGCU	-1.3 ± 0.12	-0.531 ± 0.17
GAGGAGCAAUAUUACGAUGU	-3.29 ± 0.33	-2.69 ± 0.32
UACCAGCAAUAUUACGCAUG	-1.22 ± 0.062	-1.09 ± 0.078
GCAGAGCAAUAUUACGCACA	-2.09 ± 0.24	
GCCUAGCAAUAUUACGCCUC	0.149 ± 0.18	0.175 ± 0.41
CCAUAGCAAUAUUACGGUUG	-1.43 ± 0.082	-0.827 ± 0.12
CAGUAGCAAUAUUACGACAG	-0.798 ± 0.093	-0.214 ± 0.12
UCGUAGCAAUAUUACGAGGA	-3.72 ± 0.39	-2.58 ± 0.29
GAAGAGCAAUAUUACGUUUU	-4.09 ± 0.23	-2.38 ± 0.21
UAGGAGCAAUAUUACGUAAA	-2.09 ± 0.16	-1.49 ± 0.15
UGUUAGCAAUAUUACGUCAC	-3.58 ± 0.33	-2.64 ± 0.38
CAGAAGCAAUAUUACGAAAG	-1.29 ± 0.11	-0.392 ± 0.12
GGCGAGCAAUAUUACGGUAA	-2.66 ± 0.16	-1.77 ± 0.2
CUAGAGCAAUAUUACGUGCG	-0.299 ± 0.083	-0.255 ± 0.098
CGAUAGCAAUAUUACGCAUU	-1.87 ± 0.2	-1.3 ± 0.21
GCGCAGCAAUAUUACGUACA	-1.49 ± 0.084	-0.256 ± 0.088
UUUGAGCAAUAUUACGACUC	-2.58 ± 0.44	-2.37 ± 0.41

Sequence	self-splicing fitness (ln) (30 °C)	self-splicing fitness (ln) (37 °C)
UGACAGCAAUAUUACGCCGC	-1.26 ± 0.32	
AGUCAGCAAUAUUACGAACA	-0.843 ± 0.076	-0.406 ± 0.11
GUUAAGCAAUAUUACGACAG	-2.85 ± 0.28	-1.82 ± 0.33
UAGAAGCAAUAUUACGCUGU	-3.73 ± 0.26	-0.977 ± 0.15
GGCUAGCAAUAUUACGGCUG	0.0242 ± 0.097	-0.992 ± 0.12
GUACAGCAAUAUUACGUAGC	-0.896 ± 0.19	-2.29 ± 0.25
GCCAAGCAAUAUUACGACGU	-0.238 ± 0.099	0.0827 ± 0.088
UCGGAGCAAUAUUACGUUCG	-1.19 ± 0.17	-1.27 ± 0.27
AGUUAGCAAUAUUACGACCC	-0.338 ± 0.19	-0.0159 ± 0.49
AAUAAGCAAUAUUACGUAUA	-1.76 ± 0.12	-1.56 ± 0.13
CCCAAGCAAUAUUACGCGAU	-3.93 ± 0.21	-2.5 ± 0.19
UCAUAGCAAUAUUACGAACG	-0.967 ± 0.085	-0.602 ± 0.12
GGUGAGCAAUAUUACGUUUC	-3.36 ± 0.29	-1.68 ± 0.25
UCGAAGCAAUAUUACGUUCC	-2.35 ± 0.33	-0.433 ± 0.41
GCUGAGCAAUAUUACGGACA	-2.53 ± 0.2	-0.488 ± 0.17
CUAGAGCAAUAUUACGAGAU	-3.54 ± 0.17	-1.67 ± 0.15
CCGGAGCAAUAUUACGAGAU	-3.24 ± 0.18	-3.52 ± 0.35
CUACAGCAAUAUUACGCAGC	-2.28 ± 0.24	-1.75 ± 0.36
UACGAGCAAUAUUACGAAAA	-3.03 ± 0.44	-2.28 ± 0.39
CUAAAGCAAUAUUACGCUUC	-3.03 ± 0.22	
GGCUAGCAAUAUUACGUCUU	-0.274 ± 0.075	0.396 ± 0.088
GCCGAGCAAUAUUACGCCUA	-2.44 ± 0.2	-1.58 ± 0.16
